B1: 3C7-3A3 (antibody, V domains shown)
VH: QVQLVESGGGVVQPGRSLRLSCAASGFTFSSYNMHWVRQAPGKGLEWVAFIWYDGSNKYYGDSVKGRFTISRDNSKNTLYLQMNSLRAEDTAVYYCAREELGIGWYFDLWGRGTLVTVSS
VL: EIVLTQSPATLSLSPGERATLSCRASQSVSSYLAWYQQKPGQAPRLLIYDASNRATGIPARFSGSGSGTDFTLTISSLEPEDFAVYYCQQRRTFGQGTKVEIK
notes: Human IgG (kappa) from a hybridoma, protein A purified; also called mAb #3; HuMab 3C7-3A3
B2: 5A8-1F1 (antibody, V domains shown)
VH: QVQLVESGGGVVQPGRSLRLSCAASGFTFSTYGMHWVRQAPGKGLEWVAIIWYDGGNKYYADSVKGRFTISRDNSKNTLYLQMNSLRAEDTAVYYCARDFYWYFDLWGRGTLVTVSS
VL: EIVLTQSPATLSLSPGERATLSCRASQSVSSYLAWYQQKPGQAPRLLIYDASNRATGIPARFSGSGSGTDFTLTISSLEPEDFAVYYCQQRRTFGQGTKVEIK
notes: Human IgG (kappa) from a hybridoma, protein A purified; also called mAb #2; HuMab 5A8-1F1
B3: 2D3-1F5-2A9 (antibody, part only; not given: light chain, V domains shown, part only)
VH: EVQLVQSGGGLVHPGGSLRLSCAGSGFTFSNYAMHWVRQAPGKGLEWVSTIGTGGGTPYADSVKGRFTISRDNAKNSLYLQMNSLRAEDMAVYYCALSAFDVWGQGTMVTVSSASTKGPSVFPLA
B4: 3D6-2F4 (antibody, V domains shown)
VH: QVQLVESGGGVVQPGRSLRLSCAASGFIFSIYGMHWVRQAPGKGLEWVAVIWYDGSNKYYADSVKGRFTISRDNSKNTLYLQMNSLRAEDTAVYYCARAPHFDYWGQGTLVTVSS
VL: DIQMTQSPSSLSASVGDRVTITCRASQGISSWLAWYQQKPEKAPKSLIYAASSLQSGVPSRFSGSGSGTDFTLTISSLQPEDFATYYCQQYNSYPYTFGQGTKLEIK
notes: Human IgG (kappa) from a hybridoma, protein A purified; also called mAb #5; HuMab 3D6-2F4
B5: 3D6-4C8 (antibody, V domains shown)
VH: QVQLVESGGGVVQPGRSLRLSCAASGFIFSIYGMHWVRQAPGKGLEWVAVIWYDGSNKYYADSVKGRFTISRDNSKNTLYLQMNSLRAEDTAVYYCARAPHFDYWGQGTLVTVSS
VL: AIQLTQSPSSLSASVGDRVTITCRASQGISSALAWYQQKPGKAPKLLIYDASSLESGVPSRFSGSGSGTDFTLTISSLQPEDFATYYCQQFNSYPLTFGGGTKVEIK
notes: Human IgG (kappa) from a hybridoma, protein A purified; also called HuMab 3D6-4C8
B6: 3G9-2D2 (antibody, V domains shown)
VH: QVQLVESGGGVVQPGRSLRLSCAASGFTFSNYGMYWVRQAPGKGLEWVAVIWYDGSNKYYADSVKGRFTISRDNSKNTLYLQMNSLRAEDTAVYYCARDLWGWYFDYWGQGTLVTVSS
VL: EIVLTQSPATLSLSPGERATLSCRASQSVSSYLAWYQQKPGQAPRLLIYDASNRATGIPARFSGSGSGTDFTLTISSLEPEDFAVYYCQQRRNWPLTFGGGTKVEIK
notes: Human IgG (kappa) from a hybridoma, protein A purified; also called mAb #8; HuMab 3G9-2D2

Key:
[1] = molecular target: T1, soluble fusion protein comprising a DEC-205 extracellular domain (comprising all ten lectin-binding domains) … (human, UniProt O60449 28-1666); assay: SPR (Biacore 2000), DEC-205 fusion protein amine-coupled to CM5 chip, antibody flowed at 1.25-200 nM, 1:1 Langmuir fit, mean of two series
T1 construct: not shown: antibody Fc domain
Description: Low levels of ligand were immobilised to limit any effects of mass transport of analyte on kinetic parameters, such that the RMAX observed was in the order of 200 RU.
The antigen-antibody association and dissociation kinetics were followed for approximately 300 to 600 seconds in each case.
Biacore's kinetics wizard was used in each case to derive kinetic parameters from the concentration series of analyte diluted in HBS-NP running buffer. The association and dissociation curves were fitted to a 1:1 Langmuir binding model using Biacore™ kinetics wizard software (Biacore AB) according to the manufacturer's guidelines. For each antibody, the figures shown are the mean of two separate series of experiments, using separately prepared sensor chips in each case, (where ka=rate constant of association, kd=rate constant of dissociation, KD=dissociation equilibrium constant (measure of affinity), KA=association equilibrium constant, Rmax=maximum SPR response signal).

[2] = molecular target: soluble fusion protein comprising a DEC-205 extracellular domain (comprising all ten lectin-binding domains) fused with an antibody Fc domain (human) (UniProt O60449); assay: as above
[3] = molecular target: T1, soluble fusion protein comprising a …; assay: ELISA, plates coated with soluble DEC-205/Fc fusion protein, saturating antibody, AP anti-human IgG Fc, OD 405-650
[4] = molecular target: human DEC-205 expressed on the cell surface (human, UniProt O60449 28-1722); assay: flow cytometry on CHO-S cells expressing human DEC-205, saturating antibody, PE anti-human IgG Fc
Sequence of human DEC-205 expressed on the cell surface (O60449 28-1722 K1321N/Y1391H limits assumed): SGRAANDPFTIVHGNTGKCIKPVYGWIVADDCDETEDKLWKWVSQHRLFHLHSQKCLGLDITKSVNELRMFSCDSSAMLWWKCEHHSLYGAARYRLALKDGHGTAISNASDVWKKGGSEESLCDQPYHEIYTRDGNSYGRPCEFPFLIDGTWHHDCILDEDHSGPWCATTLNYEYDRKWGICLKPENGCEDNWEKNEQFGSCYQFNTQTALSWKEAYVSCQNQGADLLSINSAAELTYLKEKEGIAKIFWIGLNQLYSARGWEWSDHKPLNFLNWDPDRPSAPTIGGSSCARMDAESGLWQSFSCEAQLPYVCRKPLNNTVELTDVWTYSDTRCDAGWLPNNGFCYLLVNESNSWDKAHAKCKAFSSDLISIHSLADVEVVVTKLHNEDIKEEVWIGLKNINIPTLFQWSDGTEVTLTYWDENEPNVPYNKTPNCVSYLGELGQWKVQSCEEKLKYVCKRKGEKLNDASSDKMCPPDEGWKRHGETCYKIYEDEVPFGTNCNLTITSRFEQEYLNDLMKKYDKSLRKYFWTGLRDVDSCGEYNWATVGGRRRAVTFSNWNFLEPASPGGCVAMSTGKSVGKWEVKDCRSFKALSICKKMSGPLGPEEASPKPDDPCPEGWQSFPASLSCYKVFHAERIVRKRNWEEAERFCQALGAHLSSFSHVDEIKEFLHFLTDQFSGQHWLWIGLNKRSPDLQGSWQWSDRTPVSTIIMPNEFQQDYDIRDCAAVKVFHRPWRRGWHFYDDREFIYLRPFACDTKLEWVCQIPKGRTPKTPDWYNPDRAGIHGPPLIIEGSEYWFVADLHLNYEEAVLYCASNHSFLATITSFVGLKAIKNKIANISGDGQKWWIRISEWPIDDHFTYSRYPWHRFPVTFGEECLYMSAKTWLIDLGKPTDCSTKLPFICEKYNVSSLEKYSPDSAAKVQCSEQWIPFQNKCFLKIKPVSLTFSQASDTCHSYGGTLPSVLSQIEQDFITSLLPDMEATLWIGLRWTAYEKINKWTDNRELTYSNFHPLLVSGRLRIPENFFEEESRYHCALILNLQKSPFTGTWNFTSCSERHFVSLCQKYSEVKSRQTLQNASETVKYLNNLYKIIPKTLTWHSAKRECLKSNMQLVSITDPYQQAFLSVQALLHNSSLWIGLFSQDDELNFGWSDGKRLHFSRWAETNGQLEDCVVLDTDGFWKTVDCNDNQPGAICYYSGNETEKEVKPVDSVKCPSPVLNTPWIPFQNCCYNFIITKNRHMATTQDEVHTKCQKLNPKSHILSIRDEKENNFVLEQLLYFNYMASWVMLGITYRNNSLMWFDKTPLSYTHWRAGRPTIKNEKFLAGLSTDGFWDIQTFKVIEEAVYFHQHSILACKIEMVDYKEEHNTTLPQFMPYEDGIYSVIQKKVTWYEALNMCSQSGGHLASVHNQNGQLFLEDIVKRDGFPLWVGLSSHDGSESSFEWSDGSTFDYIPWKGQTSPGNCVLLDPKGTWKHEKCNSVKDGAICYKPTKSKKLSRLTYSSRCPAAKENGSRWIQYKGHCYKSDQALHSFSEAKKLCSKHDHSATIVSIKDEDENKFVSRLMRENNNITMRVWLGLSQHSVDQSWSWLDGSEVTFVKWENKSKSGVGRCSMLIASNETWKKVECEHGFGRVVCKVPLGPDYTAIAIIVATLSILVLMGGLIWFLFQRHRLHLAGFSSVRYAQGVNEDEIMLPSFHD

T1 sequence (O60449 28-1666 K1321N/Y1391H): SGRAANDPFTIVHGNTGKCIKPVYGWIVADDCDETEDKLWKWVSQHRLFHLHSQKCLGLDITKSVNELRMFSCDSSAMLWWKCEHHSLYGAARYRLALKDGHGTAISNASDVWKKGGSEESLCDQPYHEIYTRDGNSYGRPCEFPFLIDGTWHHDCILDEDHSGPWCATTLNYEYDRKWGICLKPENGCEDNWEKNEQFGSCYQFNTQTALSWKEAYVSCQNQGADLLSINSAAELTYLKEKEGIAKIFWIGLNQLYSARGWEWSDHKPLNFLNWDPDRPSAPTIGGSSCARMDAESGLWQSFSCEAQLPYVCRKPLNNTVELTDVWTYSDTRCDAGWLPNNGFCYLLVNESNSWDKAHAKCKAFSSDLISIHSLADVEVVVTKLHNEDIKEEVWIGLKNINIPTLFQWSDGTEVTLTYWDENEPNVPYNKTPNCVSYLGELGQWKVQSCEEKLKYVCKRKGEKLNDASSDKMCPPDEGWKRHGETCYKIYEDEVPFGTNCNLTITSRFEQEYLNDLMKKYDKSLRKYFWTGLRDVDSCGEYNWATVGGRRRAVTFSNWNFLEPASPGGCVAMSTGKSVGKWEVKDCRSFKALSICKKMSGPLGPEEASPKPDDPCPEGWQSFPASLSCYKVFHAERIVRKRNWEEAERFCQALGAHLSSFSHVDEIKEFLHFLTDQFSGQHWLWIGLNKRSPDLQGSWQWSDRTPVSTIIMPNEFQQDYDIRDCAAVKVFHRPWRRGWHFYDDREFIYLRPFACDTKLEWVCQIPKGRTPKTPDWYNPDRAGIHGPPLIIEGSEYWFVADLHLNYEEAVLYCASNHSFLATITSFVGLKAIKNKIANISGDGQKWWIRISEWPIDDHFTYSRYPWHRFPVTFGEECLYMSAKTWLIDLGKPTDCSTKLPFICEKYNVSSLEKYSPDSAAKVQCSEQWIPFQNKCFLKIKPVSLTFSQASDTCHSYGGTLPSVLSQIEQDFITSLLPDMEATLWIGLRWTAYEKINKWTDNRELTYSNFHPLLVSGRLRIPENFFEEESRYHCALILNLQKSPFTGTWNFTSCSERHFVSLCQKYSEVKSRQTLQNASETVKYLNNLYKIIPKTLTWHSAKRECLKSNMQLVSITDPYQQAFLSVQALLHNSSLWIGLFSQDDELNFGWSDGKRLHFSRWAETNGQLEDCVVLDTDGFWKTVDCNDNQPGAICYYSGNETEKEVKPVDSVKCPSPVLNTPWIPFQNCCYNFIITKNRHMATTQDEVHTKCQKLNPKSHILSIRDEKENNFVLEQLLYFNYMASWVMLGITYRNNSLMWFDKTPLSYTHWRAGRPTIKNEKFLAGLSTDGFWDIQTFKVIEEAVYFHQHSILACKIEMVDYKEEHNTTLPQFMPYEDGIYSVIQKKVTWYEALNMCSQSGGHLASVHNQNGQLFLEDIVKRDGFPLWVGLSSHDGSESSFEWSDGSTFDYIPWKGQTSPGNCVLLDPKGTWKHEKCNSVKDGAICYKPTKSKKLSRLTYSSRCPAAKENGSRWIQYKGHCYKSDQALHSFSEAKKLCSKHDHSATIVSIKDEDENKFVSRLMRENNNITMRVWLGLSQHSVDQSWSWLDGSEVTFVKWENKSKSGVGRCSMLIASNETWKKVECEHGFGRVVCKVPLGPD
Sequence of soluble fusion protein comprising a DEC-205 extracellular domain (comprising all ten lectin-binding domains) fused with an antibody Fc domain (human) (O60449 28-1666 K1321N/Y1391H): as above

Row | Binder | Ka [1] [M⁻¹] | Kd [1] [nM] | koff [1] [s⁻¹] | kon [1] [M⁻¹ s⁻¹] | Ka [2] [M⁻¹] | Kd [2] [nM] | koff [2] [s⁻¹] | kon [2] [M⁻¹ s⁻¹] | binding result [3] | binding result [4]
1 | B1 | 5.2e+08 | 5.6 | 0.00076 | 170000 |  |  |  |  |  | 
2 | B2 | 2.1e+09 | 1.5 | 0.0002 | 360000 |  |  |  |  |  | 
3 | B3 |  |  |  |  | 1.5e+10 | 0.068 | 2.2e-05 | 330000 |  | 
4 | B4 | 1.5e+10 | 0.08 | 0.00012 | 1.8e+06 |  |  |  |  |  | 
5 | B5 |  |  |  |  |  |  |  |  | binds | binds
6 | B6 | 4.7e+09 | 0.24 | 0.00019 | 900000 |  |  |  |  |  | 

— US20090175880A1 (published 2009)
